{"source": "paper PMC8248744", "about": "“High-resolution genetic mapping reveals cis-regulatory and copy number variation in loci associated with cytochrome P450-mediated detoxification in a generalist arthropod pest” (PLoS Genetics, 2021)", "substrate": "COC(c1ccc(NC(=O)c2c(C)nn(C)c2C)cc1CC(C)C)(C(F)(F)F)C(F)(F)F", "experiment": "HPLC-UV substrate depletion, recombinant membranes", "assay_type": "biochemical, Tetranychus urticae", "conditions": "NADPH-regenerating system, 0.2 M Tris-HCl pH 7.4, 0.25 mM MgCl2, 2.5% acetonitrile, 30°C, N-demethylation at pyrazole, co-expressed with TuCPR"}
{"protein": "CYP392A16 (Tetranychus urticae) (protein, E. coli BL21STAR membrane fraction; with NADPH--cytochrome P450 reductase) MIEVIHSGSIPDGHFTVSTIMFLISNLLSSQPLVNSLIGLALFWLVKYLFNTIQRIRSLPAGPWGLPIVGYLPFIKDDIYLVFDQLSKKYGPVYSLKLGSFDVVLVCDWPHMKDAVANDALLARQHEVFFPGVVEGRSFAEMSGDPWREHRRLSLHILRDVGLGKSTIETLVKEEVDQFLSALENNGKPADFEKCISRSVTNNVSILLFGHKYERDDPTAIAISSANTEVGRSFSFAGVVAFLPWLAELVFKFELFNVTRLKKCFQIVDTHIQDEIVKHQEKNSQEVVDYIDGYLVEKKNREKQNKVDDNFTIEILRRNAGAFYGAGTETVSSTMEWIMVYLVKYPEYQDKIRSEIADVIGFERKPDYVDRNRMPFTMAFIHEIHRIGSVVANNLLRRAASDTKIGNYNIPKDTLVILNFWSVNRDPKLWPNPDEFDPTRFLTEDGSKVVKPPHLIPFSAGKRNCPGESLANVELFLYLVCMLQKYHVKVKPGTKISTEAIFGLSRRPSQLPTFIFEKISNSN", "values": [{"measurement": "Km", "result": "17.79 (± 3.29 SE) μM"}]}
